Test results taken from the supplement of paper PMC12667976.

B1: library; numbered along this chain (parent)
chain: MATDAALRRLLRLHRTEIAVAVDSAFPLLHALADHDVVPEDKFQETLHLKEKEGCPQAFHALLSWLLTQDSTAILDFWRVLFKDYNLERYGRLQPILDSFPKDVDLSQPRKGRKPPAVPKALVPPPRLPTKRKASEEARAAAPAALTPRGTASPGSQLKAKPPKKPESSAEQQRLPLGNGIQTMSASVQRAVAMSSGDVPGARGAVEGILIQQVFESGGSKKCIQVGGEFYTPSKFEDSGSGKNKARSSSGPKPLVRAKGAQGAAPGGGEARLGQQGSVPAPLALPSDPQLHQKNEDECAVCRDGGELICCDGCPRAFHLACLSPPLREIPSGTWRCSSCLQATVQEVQPRAEEPRPQEPPVETPLPPGLRSAGEEVRGPPGEPLAGMDTTLVYKHLPAPPSAAPLPGLDSSALHPLLCVGPEGQQNLAPGARCGVCGDGTDVLRCTHCAAAFHWRCHFPAGTSRPGTGLRCRSCSGDVTPAPVEGVLAPSPARLAPGPAKDDTASHEPALHRDDLESLLSEHTFDGILQWAIQSMARPAAPFPS

Variants of: B1
Assay: AIRE transcriptional activation functional score (insulin promoter-GFP; nonsense median 0, synonymous median 1) (normalised score); higher = higher AIRE activity (more reporter activation)
Settings: with insulin promoter-GFP reporter in HEK293
Method: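 Deep mutational scan of full-length human AIRE (codon-optimized cDNA, DT-POPCode NNN libraries over three regions) integrated at a Bxb1 landing pad in HEK293 cells carrying an insulin core promoter-GFP reporter at a Flp-In site. Cells were sorted for the top 10% GFP about 14 days after transfection. Variant frequency log-ratios (select vs non-select, TileSeq) were rescaled so that the nonsense median is 0 and the synonymous median is 1, then averaged over biological replicates.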

AIRE transcriptional activation functional score: each site, then its substitutions
L32: P -0.841 | F -0.313 | T -0.512 | W -1.32 | H -0.413 | C -0.199 | N -0.605 | S -0.125 | G -0.111 | M -0.0821 | R -0.205 | Q -0.665 | A -0.972 | I -0.434 | Y 0.28 | V -0.331
A25: D 0.297 | L 1.16 | P 0.792 | I 0.925 | R 0.337 | N -1.11 | Q 0.196 | F 0.583 | V 1.01 | S 0.301 | Y -0.882 | H -1.85 | K 0.411 | W -0.59 | C 0.493 | T 0.533 | G 0.475
A31: D 0.894 | N -0.416 | L 0.635 | T -0.678 | G 0.0886 | I 0.231 | H -0.698 | Y 1.22 | W -0.0372 | F -0.218 | S 0.0612 | P -0.0989 | R -0.0467 | C -0.0426 | V -0.00796 | Q 0.778
L29: V 0.342 | G -0.175 | N 0.195 | A -0.0346 | I 0.187 | R 0.468 | M -0.19 | T -0.208 | D -0.402 | K 0.34 | Y -0.0248 | F -0.401 | S -0.0413 | Q 0.317 | W 0.224 | H -0.121 | P -0.138 | C -0.201
V38: Y 0.622 | S -0.704 | F -0.138 | T 0.604 | N -0.701 | I 1.55 | R 0.941 | D -0.427 | A -0.245 | P -0.205 | M 0.387 | K 0.354 | C 0.438 | Q -0.0109 | L 0.157 | W -0.576 | G -0.618
V37: D 0.512 | R 0.122 | G 0.192 | Y 0.262 | H 0.218 | A -0.162 | C -0.563 | M -1.53 | K 0.536 | I 0.337 | E -0.336 | W -0.538 | L -0.0654 | F 0.178 | S -0.316
S24: C 0.658 | F 0.0274 | R 0.239 | L -0.159 | W -0.0451 | H -0.0302 | A -0.0275 | V 0.582 | Y 0.463 | I 0.123 | Q -0.0656 | T -0.0952 | K 1.61 | P -0.246 | D 0.577 | G 0.358 | M 1.04 | E 0.661
D34: W -0.393 | S -0.594 | P 0.782 | N 0.331 | V 0.0819 | Q -0.011 | G 0.43 | L 0.437 | H 1.62 | M -1.08 | C -0.617 | T -1.22 | R -0.24 | A -0.1 | E -2.11 | Y -0.0055 | I -0.247 | F 0.247
P27: E -0.123 | R 0.196 | V -0.229 | F -0.037 | A 0.562 | Y -0.654 | Q 0.267 | H 0.254 | D -0.285 | I 0.28 | L 0.398 | G 0.0337 | T 0.0492 | K 0.0588 | S 0.41 | W 0.934 | C -0.00711 | N 0.263 | M -0.268
D36: F -0.636 | W 0.641 | K 0.212 | V -0.422 | T -0.367 | A 0.22 | L -0.0069 | N 1.07 | C -0.525 | R 0.583 | E 1.34 | Y 0.501 | Q -0.178 | P 0.171 | G 0.788 | H -1.75 | I 0.0675 | M -0.672 | S 0.294
P39: A -0.568 | S 0.402 | K -0.314 | Q 0.348 | Y -1.28 | T 1.25 | W 0.403 | E 0.999 | M -0.22 | H 0.277 | L -0.0747 | R 0.0519 | V -1.34 | G -0.241 | F 1.34
F26: P 0.00822 | M -1 | H -0.678 | C -0.0618 | Q -2.95 | Y -0.359 | A -0.171 | D 0.00972 | L -0.13 | K -0.369 | I -0.664 | S 0.0967 | G -0.298 | T 0.422 | W 1.21 | N 0.281 | E -0.35 | V -0.0518 | R -0.107
A21: R 0.00134 | G 0.0519 | H 0.216 | I -0.0753 | Y 0.166 | P 0.125 | N 0.54 | M 0.432 | Q -0.205 | S 0.0464 | L -0.19 | V 0.278 | T -0.00846 | W -0.574
H35: V 0.15 | I 0.107 | C -0.102 | F 0.0268 | E -0.848 | Q -0.305 | D -0.476 | A 0.00595 | Y 0.805 | G 0.0779 | M -0.719 | W 0.553 | P 0.148 | K -0.196 | L -0.231 | S 0.352 | N 0.76 | T -0.0166 | R -0.213
H30: F 0.0787 | E 0.323 | S 0.156 | I -0.51 | P -0.0919 | L 0.0371 | W -0.339 | Y 1.23 | C 0.429 | M 0.839 | Q -0.357 | A -0.75 | N 0.384 | K 0.682 | V -0.417 | G 0.000219 | T -0.172 | D 0.0821 | R 0.24
L28: E -1.34 | R 0.297 | G 0.239 | S -0.39 | F -0.285 | T 0.6 | A -0.115 | C -0.067 | I 0.53 | Y -0.212 | Q 0.552 | V 0.05 | K 0.863 | W -2.53 | P 0.00884 | H -2.61 | D -0.558 | N -1.05 | M 0.175
A33: R -0.705 | F 0.348 | V 1.53 | Y 0.238 | I -1.54 | P -0.0164 | K -0.895 | W 0.679 | N 1.58 | L 0.173 | C 0.846 | T 0.426 | D -1.07 | E 0.898 | G 0.554 | S 0.0699
D23: V -0.286 | K -0.339 | Q -0.673 | A -0.24 | C -0.0222 | E 1.02 | I 0.125 | W -1 | P -0.613 | T -0.174 | N -0.303 | H 1.33 | F 0.3 | M 0.267 | G 0.031 | L -0.372 | Y -0.199 | R -0.0795 | S 0.041
E40: A -0.436 | D 0.418 | C -1.11
V22: N -0.13 | M -0.505 | W -0.0929 | S -0.103 | F -0.0603 | G -0.0564 | D -0.245 | A 0.0736 | C -0.0794 | E -1.03 | T -0.0112 | I 1.57 | K -1.05 | R 0.528 | L 0.487 | P -0.118 | Y -0.0365 | H 0.157
